Data published in publication PMC8626469, “Helicobacter pylori FabX contains a [4Fe-4S] cluster essential for unsaturated fatty acid synthesis” (Nature Communications, 2021).

Key:
[1] = substrate: CCCCCCCCCC(=O)SCCNC(=O)CCNC(=O)[C@H](O)C(C)(C)COP(=O)(O)OP(=O)(O)OC[C@H]1O[C@@H](n2cnc3c(N)ncnc32)[C@H](O)[C@@H]1OP(=O)(O)O; assay: purified protein; format: biochemical, Helicobacter pylori; settings: pH 7.2, 50 mM sodium phosphate, 50 mM NaCl, 25-37 °C, 1.25 uM FabX, 5 uM E. coli FabI, 125 uM NADH, dehydrogenation of substrate analogue of decanoyl-ACP, 30-250 uM
[2] = target: Helicobacter pylori FabX R164A (H. pylori)
[3] = target: Helicobacter pylori FabX (H. pylori); assay: SEC-MALS; 10 mg/ml FabX, holo-ACP or FabX-holo-ACP complex on a WTC-030S5 column; 20 mM HEPES pH 8.0, 50 mM NaCl, 10 mM TCEP

B1: FabX (Helicobacter pylori) (protein)
chain: MVSTLKPLKIGKHTIKFPIFQGGMGVGISWDELAGNVAKEGALGVISAVGTGYYKNMRFVERIVAKKPFEALNFYSKKALNEIFANARKICGNNPLGANILYAINDYGRVLRDSCEAGANIIITGAGLPTNMPEFAKDFSDVALIPIISSAKALKILCKRWSDRYKRIPDAFIVEGPLSGGHQGFKYEDCFKEEFRLENLVPKVVEASKEWGNIPIIAAGGIWDRKDIDTMLSLGASGVQMATRFLGTKECDAKVYADLLPTLKKEDILLIKSPVGYPARAINTGVIKRIEEGNAPKIACVSNCVAPCNRGEEAKKVGYCIADGLGRSYLGNREEGLYFTGANGYRVDKIISVHELIKELTEG
notes: full length, 363 residues; expressed in E. coli BL21(DE3) Rosetta; monomer in the asymmetric unit; holds FMN and a [4Fe-4S] cluster
[1]
  Km: 125.40 µM
  kcat: 0.0186 s⁻¹

B2: Helicobacter pylori decanoyl-acyl carrier protein (natural protein)
chain: MALFEDIQAVIAEQLNVDAVQVTPEAEFVKDLGADSLDVVELIMALEEKFGVEIPDEQAEKIINVGDVVKYIEDNKLA
[2]
  in vitro dehydrogenation activity with decanoyl-ACP (FabX-FabI coupled assay), fold reduction against wild type FabX: 80 fold

B3: Helicobacter pylori holo-acyl carrier protein (natural protein)
chain: MALFEDIQAVIAEQLNVDAVQVTPEAEFVKDLGADSLDVVELIMALEEKFGVEIPDEQAEKIINVGDVVKYIEDNKLA
modifications: phosphopantetheine group (PPant) on Ser36
[3]
  stoichiometry N: 1
